For one substance, Kd results are on record in publication PMC5521178.

Broadly, the Kd is the concentration at which binding is half-saturated. Low readings indicate a tighter complex, high ones a looser complex.

Common to all, as to assay: fluorescence polarisation
A general note: Fluorescence polarisation rises when a labelled molecule tumbles more slowly, as on binding a larger partner.

Assay [1] deals with FITC-labeled full-length caspase-7 C186A (UniProt P55210).
The target of assay [2] is FITC-labeled full-length caspase-7 C186A phosphorylated by autoactivated PAK2 (UniProt P55210).
Assay [3] addresses FITC-labeled full-length caspase-7 S30A/C186A (UniProt P55210).

Bounds are passed on as bounds.

In the case of “caspase-9 constitutive dimer C287A (from UniProt P55211 1-416) (enzyme)”, the dissociation constant Kd in assay [1] was 1.8 µM; in assay [2], > 27 µM; in assay [3] it was 1.7 µM.
